Assay [1] deals with βTrCP (tag cleaved and complexed with Skp1) (UniProt Q9Y297). In words: FP competition vs fluorescein-IκB peptide.
Assay [2] shares this target. In words: FP competition, 10 nM fluorescein-IκB peptide on βTrCP/Skp1.
Assay [3] has as its target HisβTrCP/Skp1 and HisβTrCP/GSTSkp1 (immobilised on NTA Biacore chip) (UniProt Q9Y297). In words: SPR, Biacore T200, βTrCP/Skp1 immobilised.
For assay [4], the target named is βTrCP (tag cleaved and complexed with Skp1) (UniProt Q9Y297). In words: FP competition vs fluorescein-IκB peptide; Table 7: peptide selected from the arrays of Tables 5 and 6, re-synthesised; FP assay.
Assay [5] has the same target. In words: FP competition vs fluorescein-IκB peptide. The source holds these as a separate data set.

Starred links: 1 amine or outer side, 2 acyl side, 3 side chain; linkers in the order of their positions; H or OH if unused. Suc = O=C(CCC(=O)[*:2])[*:1]

Chain of HisβTrCP/Skp1 and HisβTrCP/GSTSkp1 (immobilised on NTA Biacore chip) (Q9Y297 175-605, chain 1 of 2): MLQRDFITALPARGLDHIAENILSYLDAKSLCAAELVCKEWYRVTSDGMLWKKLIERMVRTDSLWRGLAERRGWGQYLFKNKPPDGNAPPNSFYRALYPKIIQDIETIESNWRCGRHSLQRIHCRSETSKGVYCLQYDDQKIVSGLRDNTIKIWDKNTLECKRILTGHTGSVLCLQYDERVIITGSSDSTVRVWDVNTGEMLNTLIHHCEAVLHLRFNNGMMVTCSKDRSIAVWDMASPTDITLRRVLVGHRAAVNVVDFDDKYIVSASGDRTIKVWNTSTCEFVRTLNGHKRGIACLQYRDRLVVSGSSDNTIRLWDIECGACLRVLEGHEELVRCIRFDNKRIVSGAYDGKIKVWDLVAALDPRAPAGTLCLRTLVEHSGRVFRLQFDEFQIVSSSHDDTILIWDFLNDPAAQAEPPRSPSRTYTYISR
Chain of HisβTrCP/Skp1 and HisβTrCP/GSTSkp1 (immobilised on NTA Biacore chip) (P63208 whole entry, chain 2 of 2, further chain): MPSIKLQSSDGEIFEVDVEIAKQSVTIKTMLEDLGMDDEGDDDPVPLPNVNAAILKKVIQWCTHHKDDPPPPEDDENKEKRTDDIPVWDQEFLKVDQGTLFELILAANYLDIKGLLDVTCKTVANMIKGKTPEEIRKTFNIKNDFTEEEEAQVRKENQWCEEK
Chain of βTrCP (tag cleaved and complexed with Skp1) (Q9Y297 175-605, chain 1 of 2): as the sequence (Q9Y297 175-605, chain 1 of 2) above
Chain of βTrCP (tag cleaved and complexed with Skp1) (P63208 whole entry, chain 2 of 2, further chain): as the sequence (P63208 whole entry, chain 2 of 2, further chain) above

Consider (MeO)Suc-EG-F(3F)-1Nal-E-NH2 (peptide), for which, in assay [1], the 50% inhibitory concentration (IC50) – broadly, the midpoint of a concentration-inhibition curve – came to 1600 nM.

Regarding D-pS-GIFE-NH2 (peptide), in assay [2], the concentration for half-maximal inhibition (IC50) is 1240 nM.

With DpSGIFE-NH2 (peptide), the Kd (in general, the concentration at which binding is half-saturated) in assay [3] was 1480 nM. In assay [1], this substance came in with an IC50 of 1240 nM.

In assay [2], E-pS-GIFE-NH2 (peptide) registered an IC50 of 34500 nM.

EAFFE-NH2 (peptide): the IC50 in assay [4] worked out at 28000 nM. In other words, the double-digit micromolar range.

As for Fum-EG-F(3F)-F(4NO2)-E-NH2 (peptide), the IC50 in assay [1] was 60400 nM.

As for Mal-EGF(3F)F(4NO2)E-NH2 (peptide), the dissociation constant (Kd) in assay [3] amounted to 1460 nM. Also, the concentration for half-maximal inhibition (IC50) in assay [1] was 2170 nM.

Take Suc-AG-F(3F)-F(4NO2)-E-NH2 (peptide): in assay [1], the IC50 was determined as 8010 nM.

Suc-AGYFE-NH2 came in with a 50% inhibitory concentration (IC50) in assay [1] of 22200 nM.

Suc-EA-F(3F)-F(4NO2)-E-NH2 (peptide): in assay [1], the IC50 was determined as 27500 nM.

As for Suc-EAFFE-NH2 (peptide), the IC50 in assay [1] came to 59800 nM.

With Suc-EAYFE-NH2 (peptide), the IC50 in assay [1] came out at 82100 nM.

Suc-EG-3Pal-1Nal-E-NH2 (peptide) came in with an IC50 in assay [1] of 3630 nM.

As to Suc-EG-F(3F)-1Nal-Q-NH2 (peptide), in assay [1], the half-maximal inhibitory concentration (IC50) worked out at 7220 nM. Compared with the last substance, the IC50 is about 2-fold higher.

In assay [5], Suc-EG-F(3F)-3Pal-NH2 (peptide) returned a half-inhibitory concentration (IC50) of 70000 nM. In other words, the double-digit micromolar range.

Suc-EG-F(3F)-Y(Me)-E-NH2 (peptide) registered an IC50 in assay [1] of 1400 nM. This counts as single-digit micromolar.

In assay [5], Suc-EG-F(4NO2)-1Nal-NH2 (peptide) had an IC50 of 14000 nM. This counts as double-digit micromolar.

Suc-EGF(2F)F(4NO2)E-NH2 (peptide) showed a Kd in assay [3] of 8000 nM. The IC50 in assay [1] worked out at 4910 nM; in assay [5], 4900 nM.

On to Suc-EGF(2F)Y(Me)E-NH2 (peptide), for which the equilibrium dissociation constant (Kd) in assay [3] amounted to 4400 nM. Further, the IC50 in assay [1] stood at 3280 nM; in assay [5], 3200 nM.

In assay [3], Suc-EGF(3F)1NalE-NH2 (peptide) gave a dissociation constant Kd of 320 nM. The same substance showed a half-inhibitory concentration (IC50) in assay [1] of 157 nM.

The substance Suc-EGF(3F)F(4NO2)E-NH2 (peptide) came in with a dissociation constant Kd in assay [3] of 4530 nM. For the same substance, the figures for the 50% inhibitory concentration (IC50) in assay [1] and in assay [5] were 522 nM and 520 nM, respectively.

In turn, Suc-EGF(3F)HE-NH2 (peptide) returned an equilibrium dissociation constant (Kd) in assay [3] of 400 nM. The substance also returned a concentration for half-maximal inhibition (IC50) in assay [1] of 521 nM.

For the substance Suc-EGF(3F)WE-NH2 (peptide), the equilibrium dissociation constant (Kd) in assay [3] stood at 455 nM. This substance also registered a half-inhibitory concentration (IC50) in assay [1] of 95 nM.

Turning to Suc-EGF(4F)F(4NO2)E-NH2 (peptide), the dissociation constant Kd in assay [3] was determined as 507 nM. Moreover, the IC50 in assay [1] turned out to be 1210 nM; in assay [5], 1200 nM.

In turn, Suc-EGF(4NO2)1NalE-NH2 (peptide) showed a Kd in assay [3] of 1960 nM. The IC50 in assay [1] amounted to 1310 nM.

Suc-EGI-1Nal-E-NH2 (peptide): the IC50 in assay [1] turned out to be 15100 nM.

In assay [3], Suc-EGY1NalE-NH2 (peptide) displayed an equilibrium dissociation constant (Kd) of 1490 nM. In assay [1], the half-maximal inhibitory concentration (IC50) was found to be 1150 nM.

As to Suc-EGYF(4NO2)E-NH2 (peptide), in assay [3], the Kd stood at 17700 nM. This substance registered a half-maximal inhibitory concentration (IC50) in assay [1] of 2070 nM.

In assay [3], Suc-QGF(3F)F(4NO2)E-NH2 (peptide) gave a dissociation constant Kd of 5490 nM. In assay [1], this substance returned an IC50 of 2560 nM.

In turn, Suc-QGFFE-NH2 came in with an IC50 in assay [1] of 10000 nM.

Suc-QGYFE-NH2 yielded an IC50 in assay [1] of 10700 nM.

The record behind these values is patent US20190106460A1, “BINDING INHIBITORS OF THE BETA. TRANSDUCIN REPEAT-CONTAINING PROTEIN” (priority 2011, published 2019).
